EC50 of Kym-1 cell viability (crystal violet assay after 16 h) and EC50 values (nM) of cell death induction using Kym-1 cells data for 3 substances are collected here from patent US20210395323A1.

The assay has as its target TNFR2 on human cells (Kym-1 cells; human CD3+ T cells) (human) (UniProt P20333). In words: cell-based or functional assay.

Sequence of TNFR2 on human cells (Kym-1 cells; human CD3+ T cells) (human) (P20333 23-461): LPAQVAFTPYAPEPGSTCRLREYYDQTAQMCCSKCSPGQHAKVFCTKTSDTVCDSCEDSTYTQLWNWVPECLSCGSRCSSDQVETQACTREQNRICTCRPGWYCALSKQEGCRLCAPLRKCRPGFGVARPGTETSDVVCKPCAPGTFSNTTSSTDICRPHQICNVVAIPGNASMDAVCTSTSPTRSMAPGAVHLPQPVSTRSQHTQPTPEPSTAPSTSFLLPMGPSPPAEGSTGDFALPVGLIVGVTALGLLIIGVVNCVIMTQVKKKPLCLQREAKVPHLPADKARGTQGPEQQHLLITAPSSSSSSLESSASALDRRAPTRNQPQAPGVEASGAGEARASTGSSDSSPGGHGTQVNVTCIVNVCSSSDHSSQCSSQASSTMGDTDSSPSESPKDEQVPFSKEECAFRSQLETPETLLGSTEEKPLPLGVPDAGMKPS

Take VASP-scTNFR2 (ligand): the EC50 of Kym-1 cell viability (crystal violet assay after 16 h) turned out to be 7 µM.
“human single-chain TNF variant (D143N/A145R, scTNFR2) (from UniProt Q8HZD9 77-232) (ligand)” registered an EC50 values (nM) of cell death induction using Kym-1 cells of 0.347 nM.
scTNFR2-Fc-scTNFR2 (Fc fusion) gave an EC50 of Kym-1 cell viability (crystal violet assay after 16 h) of 8.5 µM.
